Experimental data from the supplement of paper PMC10567573.

B1: PPFIA4 (parent)
chain: VMTLPSDLRKHRRKLLSPVSREEN
B2: C10orf62 (parent)
chain: MLWVQRKRRRKETSECPSDKDKSP

Variants of: B1
Test: protein stability index of a GFP-peptide fusion (GPS, HEK-293T) (PSI 1-6); higher = more stable
Settings: c terminus: a fixed tail appended
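Further: lentivirally expressed fusions sorted by FACS into six bins by GFP to DsRed ratio, PSI derived from sequencing read proportions per bin multiplied by bin number.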

Protein stability index: each site, then its substitutions
D7: P 3.44; E 3.46; S 2.98; Q 3.3; H 3.15; F 2.57; V 2.84; K 3.19; G 3.62; R 3.31; T 3.24; N 3.39; I 2.72; Y 3.2; W 2.92; A 2.24; C 2.86; M 2.94; L 2.33
M2: H 4.02; A 4.31; D 4.71; Y 3.15; T 4.46; L 3.48; S 3.69; I 3.12; F 3.19; E 4.54; C 3.65; V 3.46; G 4.17; P 3.93; R 4.04; N 3.84; Q 3.06; K 3.82; W 3.72
L4: N 4.23; S 3.94; G 4.45; H 4.08; W 4.09; Y 3.45; V 3.77; R 3.25; K 4.44; I 3.42; E 4.37; A 4.27; D 4.14; P 4.32; M 3.69; T 4.28; Q 4.02; C 4.31; F 3.4
P5: E 4.18; R 4; F 2.1; C 2.63; K 3.4; Q 3.4; D 4.37; S 3.08; L 2.48; I 2.12; M 2.47; V 2.76; T 3.67; G 3.01; A 3.06; Y 2.7; W 2.25; H 2.67; N 3.47
T3: S 3.71; H 3.52; L 2.32; R 3.07; Y 2.5; M 2.31; P 3.51; V 2.95; K 2.66; E 3.51; D 4.12; N 2.82; A 3.92; Q 2.85; F 1.74; W 2.26; G 3.99; I 2.65; C 3.56
S6: N 3.51; V 2.4; Q 3.63; R 3.41; G 3.65; A 3.93; P 3.97; F 3.57; I 3.04; C 3.6; Y 3.5; E 3.85; K 3.24; L 3.38; T 3.52; H 3.52; M 3.4; D 4.02
L8: I 4.07; P 3.84; W 3.22; M 4.01; S 4.73; N 3.74; K 4.14; Q 4.05; V 4.11; F 3.59; E 4.35; D 4.28; G 3.56; H 3.9; R 4.15; C 4.04; A 3.43; Y 3.24; T 4.24
V1: N 3.62; H 4.25; D 4.35; K 3.81; G 3.31; W 2.66; T 4.25; L 3.27; C 3.81; Y 3.21; R 4.59; E 4.2; F 2.83; M 3.89; S 4.27; I 3.55; P 4.27; A 3.93; Q 4.35
R9: C 4.01; A 4.01

Variants of: B2
Test: as above
Settings: c terminus: a fixed tail appended

Protein stability index of substitutions, site by site:
P24: N 2.8; M 2.46; L 2.37; S 3.11; G 3.59; V 2.95; K 2.16; T 2.98; I 2.35; H 3.31; Q 3.54; W 3.58; Y 2.57; R 3.31
